From paper PMC7319042 (Structure (London, England : 1993), 2018)

Assays:
[1] = target: Rev (Human immunodeficiency virus 1) (UniProt P04325); conditions: cited from earlier work
[2] = target: Rev116 (HIV-1, UniProt P04616 1-116); experiment: analytical ultracentrifugation
[3] = target: HIV-1 Rev^93 (C-terminally truncated Rev, amino acids 1-93) (HIV-1, UniProt P04618); experiment: crystal structure
[4] = target: HIV-1 Rev^116 (full-length wild-type Rev) (HIV-1, UniProt P04618); experiment: light scattering at 320 nm of the
[5] = target: T1, HIV-1 Rev^116 (full-length wild-type Rev) (HIV-1), P04618; experiment: light scattering at 320 nm of thermally induced assembly; conditions: remark: other sources report otherwise
T1 chain: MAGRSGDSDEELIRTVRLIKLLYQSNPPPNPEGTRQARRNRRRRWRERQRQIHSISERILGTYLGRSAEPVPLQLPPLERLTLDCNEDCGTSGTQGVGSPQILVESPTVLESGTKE

[6] = target: T1, HIV-1 Rev^116 (full-length wild-type …); experiment: AUC; conditions: remark: other sources report otherwise

Rev (from UniProt P04325)
Kd [1]: 1000 nM

GGCUGGACUCGUACUUCGGUACUGGAGAAACAGCC (structured_RNA) [RBA-14]
binding result [2]: binds

B1: chimeric rabbit/human scFv SJS-R1 (anti-Rev single-chain variable fragment) (scFv, V domains shown)
VH: QEQLVESGGRLVTPGTALTLTCKVSGFSLSGFWLNWVRQAPGKGLEWVGAIYRGSGSEWYASWAKGRFTISDTSTTVTLKLTSPTTEDTATYFCAADTTDNGYFTIWGPGTLVTVSS
VL: ELVMTQTPSSVSEPVGGTVTIKCQASQSISSWLSWYQQKPGQPPKLLIYDASNLASGVPSRFMGSGSGTEYTLTISGVQREDAATYYCLGGYPAASYRTAFGGGTELEII
binding result [3]: binds | binding result [4]: binds

B2: HIV-1 Rev^116 (full-length wild-type Rev), P04618 1-116 (natural protein)
chain: T1 chain
critical concentration (Cr) of polymer formation [5]: 11 µM | stoichiometry N [6]: 4
